The results in this text go back to patent US20090239215A1.

The target of the experiment is MBP-MT2 fusion protein (maltose binding protein fused to two copies of metallothionein), without gold (mouse) (UniProt P02802). Kind of experiment: STEM mass measurement (PCMass25); expected 260 kDa for the antibody with two MBP-MT2.
Chain of UniProt P02802 (P02802 other isoform, or with tags, fused parts or gaps): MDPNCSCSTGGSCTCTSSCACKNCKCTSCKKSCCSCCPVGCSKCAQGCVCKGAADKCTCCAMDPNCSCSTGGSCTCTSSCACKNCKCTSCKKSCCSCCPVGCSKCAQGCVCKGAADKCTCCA

The substance “commercially available monoclonal IgG2a MBP antibody (New England Biolabs)” registered a mean STEM mass of the antibody complex particles of 205 kDa.
